The target in test [1] is T1, human calcitonin receptor (human, UniProt P30988 25-474).
T1 construct: whole, on cells; Used as cell membranes; also called hCTR; hCT
T1 sequence (looked up): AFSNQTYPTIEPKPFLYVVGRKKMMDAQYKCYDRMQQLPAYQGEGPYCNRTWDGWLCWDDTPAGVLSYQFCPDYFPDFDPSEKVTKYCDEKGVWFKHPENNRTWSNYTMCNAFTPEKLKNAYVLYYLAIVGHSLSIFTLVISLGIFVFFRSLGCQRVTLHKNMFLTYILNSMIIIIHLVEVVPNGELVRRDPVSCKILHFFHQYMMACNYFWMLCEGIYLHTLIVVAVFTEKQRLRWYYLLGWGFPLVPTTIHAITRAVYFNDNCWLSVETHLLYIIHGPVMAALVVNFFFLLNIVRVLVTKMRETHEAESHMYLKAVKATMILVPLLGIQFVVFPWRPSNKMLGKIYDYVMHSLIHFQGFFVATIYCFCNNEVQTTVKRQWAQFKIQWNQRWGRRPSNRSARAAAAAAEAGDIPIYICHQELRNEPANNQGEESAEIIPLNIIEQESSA
Briefly: SPA competition on BHK cell membranes, 125I-calcitonin as radioligand (Assay VII). Summed up: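 BHK hCTR membranes 35 ng/μL + SPA beads 0.05 mg/well; buffer 50 mM Hepes pH 7.4, 1 mM CaCl2, 5 mM MgCl₂, 0.1% OA, 0.02% Tween20. 120 min, 25° C., shaking. Scintillation count; IC50 by one-site binding competition.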

Test [2] addresses T1, human calcitonin receptor. In words: ratio of hCTR IC50 to hAmylin-R IC50 (reference: human amylin receptor). Summed up: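 Competition binding by SPA uses membrane preparations (35 ng/μL final) in pH 7.4 Hepes buffer with 1 mM CaCl2 and 5 mM MgCl₂. Incubation lasts 120 min at 25° C, and IC₅₀ comes from one-site fitting.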

The source of these data is patent US20140087995A1 (published 2014).

Numbered stars: 1 amine (or outer) side, 2 acyl side, 3 side chain; on linkers, the order of the positions; unused ones are H or OH. Bridge positions count the residues as written; N and C are the ends. Side chains are listed from the residue outwards. Ends that are not written are not given here. * marks the point of attachment. C20 diacid = O=C(O)CCCCCCCCCCCCCCCCCCC(=O)*; γGlu = O=C(O)[C@H](CCC(=O)[*:2])N[*:1]; AEEA = NCCOCCOCC(=O)O

B1: N^ε1-[2-[2-[2-[[(4S)-4-carboxy-4-(19-carboxynonadecanoylamino)butanoyl]amino]ethoxy]ethoxy]acetyl]-[His14,Arg17,Pro21,Pro27,His34]-h-amylin (peptide)
peptide: K([AEEA-γGlu-C20 diacid])CNTATCATQRLAHFLRHSSPNFGAIPSSTNVGHNTY-NH2
modifications: disulfide 2-7; N-terminus assumed
SMILES: CC[C@H](C)[C@H](NC(=O)[C@H](C)NC(=O)CNC(=O)[C@H](Cc1ccccc1)NC(=O)[C@H](CC(N)=O)NC(=O)[C@@H]1CCCN1C(=O)[C@H](CO)NC(=O)[C@H](CO)NC(=O)[C@H](Cc1c[nH]cn1)NC(=O)[C@H](CCCNC(=N)N)NC(=O)[C@H](CC(C)C)NC(=O)[C@H](Cc1ccccc1)NC(=O)[C@H](Cc1c[nH]cn1)NC(=O)[C@H](C)NC(=O)[C@H](CC(C)C)NC(=O)[C@H](CCCNC(=N)N)NC(=O)[C@H](CCC(N)=O)NC(=O)[C@@H](NC(=O)[C@H](C)NC(=O)[C@@H]1CSSC[C@H](NC(=O)[C@@H](N)CCCCNC(=O)COCCOCCNC(=O)CC[C@H](NC(=O)CCCCCCCCCCCCCCCCCCC(=O)O)C(=O)O)C(=O)N[C@@H](CC(N)=O)C(=O)N[C@@H]([C@@H](C)O)C(=O)N[C@@H](C)C(=O)N[C@@H]([C@@H](C)O)C(=O)N1)[C@@H](C)O)C(=O)N1CCC[C@H]1C(=O)N[C@@H](CO)C(=O)N[C@@H](CO)C(=O)N[C@H](C(=O)N[C@@H](CC(N)=O)C(=O)N[C@H](C(=O)NCC(=O)N[C@@H](Cc1c[nH]cn1)C(=O)N[C@@H](CC(N)=O)C(=O)N[C@H](C(=O)N[C@@H](Cc1ccc(O)cc1)C(N)=O)[C@@H](C)O)C(C)C)[C@@H](C)O
notes: also called compound 80
Take B1: the IC50 (usually the concentration at which inhibition is half-maximal) in test [1] stood at 19.8 nM. For the same molecule, in test [2], the “Ratio hCT/hAmylin binding” value came to 68.1.

B2: N^ε1-[2-[2-[2-[[(4S)-4-carboxy-4-(19-carboxynonadecanoylamino)butanoyl]amino]ethoxy]ethoxy]acetyl]-[His14,Arg17,Pro21,Pro27,Pro34]-h-amylin (peptide)
peptide: K([AEEA-γGlu-C20 diacid])CNTATCATQRLAHFLRHSSPNFGAIPSSTNVGPNTY-NH2
modifications: disulfide 2-7; N-terminus assumed
SMILES: CC[C@H](C)[C@H](NC(=O)[C@H](C)NC(=O)CNC(=O)[C@H](Cc1ccccc1)NC(=O)[C@H](CC(N)=O)NC(=O)[C@@H]1CCCN1C(=O)[C@H](CO)NC(=O)[C@H](CO)NC(=O)[C@H](Cc1c[nH]cn1)NC(=O)[C@H](CCCNC(=N)N)NC(=O)[C@H](CC(C)C)NC(=O)[C@H](Cc1ccccc1)NC(=O)[C@H](Cc1c[nH]cn1)NC(=O)[C@H](C)NC(=O)[C@H](CC(C)C)NC(=O)[C@H](CCCNC(=N)N)NC(=O)[C@H](CCC(N)=O)NC(=O)[C@@H](NC(=O)[C@H](C)NC(=O)[C@@H]1CSSC[C@H](NC(=O)[C@@H](N)CCCCNC(=O)COCCOCCNC(=O)CC[C@H](NC(=O)CCCCCCCCCCCCCCCCCCC(=O)O)C(=O)O)C(=O)N[C@@H](CC(N)=O)C(=O)N[C@@H]([C@@H](C)O)C(=O)N[C@@H](C)C(=O)N[C@@H]([C@@H](C)O)C(=O)N1)[C@@H](C)O)C(=O)N1CCC[C@H]1C(=O)N[C@@H](CO)C(=O)N[C@@H](CO)C(=O)N[C@H](C(=O)N[C@@H](CC(N)=O)C(=O)N[C@H](C(=O)NCC(=O)N1CCC[C@H]1C(=O)N[C@@H](CC(N)=O)C(=O)N[C@H](C(=O)N[C@@H](Cc1ccc(O)cc1)C(N)=O)[C@@H](C)O)C(C)C)[C@@H](C)O
notes: also called compound 68
B2: the IC50 in test [1] came to 5.66 nM. In addition, the “Ratio hCT/hAmylin binding” value in test [2] turned out to be 64.4.
